Biological target: mini-SaCas9-3 with four tandem repeats of SpyTag fused to its C-terminal (Streptococcus pyogenes)
Test: cell-based or functional assay

Substance: SpyCatcher:VPR
- expression of the enhanced blue fluorescent protein 2 (EBFP2) reporter gene compared to the negative control: 100 fold

— US11674128
